As usually defined, the Kd is the free concentration of one partner at which half of the binding sites on the other are occupied at equilibrium, for simple one-to-one binding.

Assay [1] deals with T1, recombinant human superoxide dismutase [Cu-Zn] (SOD1), wild type (human, UniProt P00441 2-154).
T1 construct: Used immobilised in the dot blot and in solution in ITC; The construct is not described further; also called recombinant SOD1; SOD1 WT
The assay can be described thus: isothermal titration calorimetry, 25 C. On the technique in general: ITC needs no label: the signal is the heat of the interaction.

The target in assay [2] is T1, recombinant human superoxide dismutase …. The assay can be described thus: isothermal titration calorimetry, 25 C. This is another data set of the same source.
For assay [3], the target named is T2, SOD1-CFP (human SOD1 fused to CFP, expressed in HeLa cells) (human, UniProt P00441 2-154).
T2 construct: not shown: CFP of pCDNA3-CFP (Addgene #13030)
T2 sequence (P00441 2-154): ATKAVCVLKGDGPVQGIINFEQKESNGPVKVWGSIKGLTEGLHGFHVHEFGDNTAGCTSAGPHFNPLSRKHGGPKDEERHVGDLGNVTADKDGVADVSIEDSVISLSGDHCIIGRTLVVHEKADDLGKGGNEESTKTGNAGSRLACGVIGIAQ
The assay is described as follows: Ni-agarose pull-down of HA-Myc-His6 tagged nanobody from co-transfected HeLa cells, blot anti-CFP.

T1 sequence (P00441 2-154 limits assumed): as the sequence (P00441 2-154) above

B1: Nb1, His6-tagged, expressed in E. coli (pET30a) (VHH)
VHH: QVQLQESGGGLVQPGGSLRLSCRASETLFSLYAMGWYRQAPGKQPELIATISGGGEGTGNYADPVKGRFTISRNNADNMVFLQMNNLKPEDTAVYYCNVYGTNLAPWGQGTQVTVSS
notes: Alpaca-derived nanobody; also called SOD1 nanobody from alpaca library; not shown: His6 tag and the pET30a vector residues around it
Regarding B1, in assay [1], the Kd is about 200 nM. Further, in assay [2], the ΔH was -11 kcal/mol and the ΔS was -17 cal/mol/deg.

B2: Nb2, His6-tagged, expressed in E. coli (pET30a) (VHH)
VHH: QVQLQESGGGSVQAGGSLRLACVASGGDTRPYITYWMGWYRQAPGKEREGVATIYTGGSGTYYSDSVEGRFTISQDKAQRTVYLQMNDLKPEDTAMYYCAAGNGALPPGRRLSPQNMDTWGPGTQVTVSS
notes: Dromedary-derived nanobody; also called SOD1 nanobody from dromedary library; not shown: His6 tag from pET30a (BamHI/XhoI)
Turning to B2, the equilibrium dissociation constant (Kd) in assay [1] is about 1000 nM. In addition, in assay [2], the ΔH is -16 kcal/mol and the ΔS is -23 cal/mol/deg.

B3: Nb4 (VHH)
VHH: QVQLQESGGGSVQTGGSLRLSCAASGYTFSSYCMGWFRQAPGKERELVSTIISDGSTYYADSVKGRFTISQDNAKNTVYLQMNNLKAEDTAIYYCAARSGGVCSGRASRYNYWGQGTQVTVSS
notes: Same nanobody as m4, but in the HeLa-expressed HA-Myc-His6 format of m6-m8; also called Nb4, HA-Myc-His6 tagged, expressed in HeLa cells
As to B3, the binding result in assay [3] is “no binding”.

The record behind these values is patent publication US20160115245A1 (VIB VZW, published 2016).
